From publication PMC6423188, “HYNIC and DOMA conjugated radiolabeled bombesin analogs as receptor-targeted probes for scintigraphic detection of breast tumor” (EJNMMI Research, 2019)

What was measured:
[1] = physchem; type: physicochemical; settings: pH 7.4
Method: Lipophilicity of the HPLC-purified radiopeptide analogs was determined through octanol/water partition coefficients, determined at pH 7.4 by measuring the distribution of the HPLC purified radiolabeled peptides in 1-octanol and PBS. Then, 50 μL HPLC purified ^99mTc-BN1/^99mTc-BN2/^99mTc-BN3/^99mTc-BN4/^99mTc-BNS with 100 μCi of radiolabeled compound in PBS was added to a to a centrifuge tube containing 1 mL n-octanol and 1 mL PBS (0.025 M, pH 7.4). The tube was vortexed at room temperature for 2 min and they are centrifuged at 5000 rpm for 5 min to ensure complete separation of layers. Further, 100 μL of each phase was transferred into a separate pre-weighed vial and measured in the well γ-counter. The ratio of octanol layer counts to aqueous layer counts was expressed as the distribution coefficient (D, the appropriate descriptor for ionizable compounds) and logD was used for determination of lipophilicity. Counts per unit weight of the sample were calculated, and logD value as calculated as follows:
log10D = log10 [(cpm in octanol – cpm in background) / (cpm in buffer – cpm in background)]

[2] = in vitro; type: in vitro ADME; settings: rat
Method: An aliquot (100 μL) of ^99mTc-BN1/^99mTc-BN2/^99mTc-BN3/^99mTc-BN4/^99mTc-BNS was added to 1 mL of freshly collected rat serum in centrifuge tube. The mixture was then incubated at 37 °C for 1 h; the serum protein was precipitated by adding 1 mL trichloroacetic acid (10%, V/V). The supernatant and precipitate were separated by centrifugation at 3000 rpm for 5 min. Radioactivities of both the phases were measured separately. The above experimental procedure was repeated three times. The percentage of protein binding was determined as: Plasma protein binding % = (precipitate counts (CPM) / [precipitate counts (CPM) + plasma counts (CPM)]) × 100%.

[3] = system: MDA-MB-231 tumor-bearing mice; assay: In vivo biodistribution; design: species or system mouse; settings: mean ± SD, n = 3; for Tumor uptake: MDA-MB-231 tumor
Method: All animal experiments were done according to the CSIR-IICB Animal Ethics Committee’s rules and regulation. Forty-eight hours before tumor cell implantation, an immunosuppressive drug (cyclosporine-A) was given intraperitoneal (i.p) at a concentration of 30 mg/kg/day. After that, MDA-MB-231 cells (5 × 10^6) 0.2 mL were implanted subcutaneously into the left flanks of the hind leg of BALB/c mice. Thereafter, the same dose of cyclosporine was given i.p. daily up to 2 weeks. Two weeks after inoculation of the tumor cells, when tumors reached ~ 0.5 cm in mean diameter, the tumor-bearing mice were used for biodistribution and imaging studies. Animals were monitored daily and their weights were recorded. Control group of mice received only 0.9 wt% saline. After cell implantation, the growth rate of the breast tumor followed a satisfactory pattern of spheroid shape and tumors are palpable within 2 to 4 weeks. MDA-MB-231 cell implanted mice tumor models were used for biodistribution and planar imaging studies of these radiolabeled new bombesin analogs.
In tissue biodistribution studies, tumor-bearing animals were divided into four groups and well hydrated for 1 h by intraperitoneal administration of saline (0.9%, 2 mL). Three animals per groups were used for biodistribution studies. After that, the radiolabeled new bombesin analogs (^99mTc-BN) were injected intravenously in each animal of each group consequently through the tail vein [24–27]. After 5, 30, 60, and 120 min intravenous administrations of radiolabeled analogs, the animals were sacrificed; blood, heart, lung, liver, kidney, stomach, intestine, spleen, pancreas, brain, muscle, and tumor were excised, weighed, and counted for radioactivity. The organ uptake was calculated as a percentage of the injected activity per gram of wet tissue (%IA/g). In order to evaluate whether binding of bombesin analogs to MDA-MB-231 cells in vivo is specific; blocking studies with ^99mTc-labeled bombesin analogs in tumor-bearing mice were carried out. Groups of three animals were injected 0.03 nmol of ^99mTc-labeled BN analogs (2 MBq) with 25 nmol of non-radiolabeled BN peptide. After 60 min and 120 min, mice were sacrificed and the organs were collected. Each organ was weighed and counted in a gamma counter along with activity standard and percentage of injected activity per gram (%IA/g) of tissue was calculated for each type of tissues. Counts were corrected for background radiation and physical decay of the radioactivity. The uptake was expressed in the percentage of injected activity per gram of each organ (%IA/g). Data were analyzed statistically by the t test, with the level of significance set at P < 0.05.

[4] = 60 min p.i., blocked with excess non-radiolabeled BN peptide

Substance: ^99mTc-HYNIC-Asp-[Phe^13Nle^14]BN(7-14)NH2 [99mTc-BN1]
- logD [1]: − 1.85 ± 0.05
- Percentage of plasma protein binding [2]: 45.00%
- Tumor uptake ([3]; 5 min p.i., i.v.): 0.78 ± 0.03 %IA/g
- Blood uptake ([3]; 5 min p.i., i.v.): 1.32 ± 0.07 %IA/g
- Heart uptake ([3]; 5 min p.i., i.v.): 1.02 ± 0.05 %IA/g
- Intestine uptake ([3]; 5 min p.i., i.v.): 1.06 ± 0.05 %IA/g
- Kidney uptake ([3]; 5 min p.i., i.v.): 2.12 ± 0.10 %IA/g
- Liver uptake ([3]; 5 min p.i., i.v.): 0.85 ± 0.04 %IA/g
- Lung uptake ([3]; 5 min p.i., i.v.): 0.95 ± 0.04 %IA/g
- Muscle uptake ([3]; 5 min p.i., i.v.): 0.22 ± 0.02 %IA/g
- Pancreas uptake ([3]; 5 min p.i., i.v.): 2.58 ± 0.12 %IA/g
- Spleen uptake ([3]; 5 min p.i., i.v.): 0.94 ± 0.04 %IA/g
- Stomach uptake ([3]; 5 min p.i., i.v.): 0.42 ± 0.02 %IA/g
- Urine + urinary bladder uptake ([3]; 5 min p.i., i.v.): 0.81 ± 0.04 %IA/g
- Tumor uptake ([3]; 30 min p.i., i.v.): 2.51 ± 0.12 %IA/g
- Blood uptake ([3]; 30 min p.i., i.v.): 0.89 ± 0.04 %IA/g
- Heart uptake ([3]; 30 min p.i., i.v.): 0.81 ± 0.04 %IA/g
- Intestine uptake ([3]; 30 min p.i., i.v.): 1.36 ± 0.06 %IA/g
- Kidney uptake ([3]; 30 min p.i., i.v.): 4.12 ± 0.20 %IA/g
- Liver uptake ([3]; 30 min p.i., i.v.): 0.69 ± 0.03 %IA/g
- Lung uptake ([3]; 30 min p.i., i.v.): 0.77 ± 0.03 %IA/g
- Muscle uptake ([3]; 30 min p.i., i.v.): 0.27 ± 0.01 %IA/g
- Pancreas uptake ([3]; 30 min p.i., i.v.): 1.79 ± 0.08 %IA/g
- Spleen uptake ([3]; 30 min p.i., i.v.): 0.51 ± 0.02 %IA/g
- Stomach uptake ([3]; 30 min p.i., i.v.): 0.85 ± 0.04 %IA/g
- Urine + urinary bladder uptake ([3]; 30 min p.i., i.v.): 2.85 ± 0.01 %IA/g
- Tumor uptake [3, 4]: 1.20 ± 0.03 %IA/g
- Blood uptake [3, 4]: 0.34 ± 0.01 %IA/g
- Heart uptake [3, 4]: 0.44 ± 0.01 %IA/g
- Intestine uptake [3, 4]: 1.44 ± 0.05 %IA/g
- Kidney uptake [3, 4]: 3.10 ± 0.02 %IA/g
- Liver uptake [3, 4]: 0.55 ± 0.03 %IA/g
- Lung uptake [3, 4]: 0.57 ± 0.02 %IA/g
- Muscle uptake [3, 4]: 0.16 ± 0.02 %IA/g
- Pancreas uptake [3, 4]: 0.91 ± 0.04 %IA/g
- Spleen uptake [3, 4]: 0.35 ± 0.01 %IA/g
- Stomach uptake [3, 4]: 0.40 ± 0.02 %IA/g
- Urine + urinary bladder uptake [3, 4]: 3.56 ± 0.02 %IA/g
- Tumor uptake ([3]; 60 min p.i., i.v.): 1.85 ± 0.09 %IA/g
- Blood uptake ([3]; 60 min p.i., i.v.): 0.32 ± 0.01 %IA/g
- Heart uptake ([3]; 60 min p.i., i.v.): 0.47 ± 0.02 %IA/g
- Intestine uptake ([3]; 60 min p.i., i.v.): 1.70 ± 0.08 %IA/g
- Kidney uptake ([3]; 60 min p.i., i.v.): 3.15 ± 0.15 %IA/g
- Liver uptake ([3]; 60 min p.i., i.v.): 0.56 ± 0.02 %IA/g
- Lung uptake ([3]; 60 min p.i., i.v.): 0.56 ± 0.02 %IA/g
- Muscle uptake ([3]; 60 min p.i., i.v.): 0.14 ± 0.01 %IA/g
- Pancreas uptake ([3]; 60 min p.i., i.v.): 1.11 ± 0.05 %IA/g
- Spleen uptake ([3]; 60 min p.i., i.v.): 0.32 ± 0.01 %IA/g
- Stomach uptake ([3]; 60 min p.i., i.v.): 0.56 ± 0.02 %IA/g
- Urine + urinary bladder uptake ([3]; 60 min p.i., i.v.): 3.50 ± 0.15 %IA/g
- Tumor uptake ([3]; 120 min p.i., i.v.): 1.56 ± 0.07 %IA/g
- Blood uptake ([3]; 120 min p.i., i.v.): 0.05 ± 0.01 %IA/g
- Heart uptake ([3]; 120 min p.i., i.v.): 0.17 ± 0.01 %IA/g
- Intestine uptake ([3]; 120 min p.i., i.v.): 1.10 ± 0.05 %IA/g
- Kidney uptake ([3]; 120 min p.i., i.v.): 1.56 ± 0.07 %IA/g
- Liver uptake ([3]; 120 min p.i., i.v.): 0.32 ± 0.01 %IA/g
- Lung uptake ([3]; 120 min p.i., i.v.): 0.32 ± 0.01 %IA/g
- Muscle uptake ([3]; 120 min p.i., i.v.): 0.09 ± 0.02 %IA/g
- Pancreas uptake ([3]; 120 min p.i., i.v.): 0.69 ± 0.03 %IA/g
- Spleen uptake ([3]; 120 min p.i., i.v.): 0.26 ± 0.03 %IA/g
- Stomach uptake ([3]; 120 min p.i., i.v.): 0.35 ± 0.01 %IA/g
- Urine + urinary bladder uptake ([3]; 120 min p.i., i.v.): 4.79 ± 0.12 %IA/g
